From patent publication US10100120B2, “Antibody which specifically binds to human CRTH2” (KYOWA HAKKO KIRIN CO., LTD, priority 2015, dated 2018) come the findings set out here.

The target in experiment [1] is T1, mutated human CRTH2 with amino acid substitution (Homo sapiens, UniProt Q9Y5Y4, R195A).
T1 construct: inserting genes encoding various mutants with amino acid substitution obtained by deleting termination codons; expressed in transfected cells; host or cells: CHO-S cells (Lifetechnologies), transient (phmAG1-MNLinker vector)
T1 sequence (Q9Y5Y4 1-395 R195A): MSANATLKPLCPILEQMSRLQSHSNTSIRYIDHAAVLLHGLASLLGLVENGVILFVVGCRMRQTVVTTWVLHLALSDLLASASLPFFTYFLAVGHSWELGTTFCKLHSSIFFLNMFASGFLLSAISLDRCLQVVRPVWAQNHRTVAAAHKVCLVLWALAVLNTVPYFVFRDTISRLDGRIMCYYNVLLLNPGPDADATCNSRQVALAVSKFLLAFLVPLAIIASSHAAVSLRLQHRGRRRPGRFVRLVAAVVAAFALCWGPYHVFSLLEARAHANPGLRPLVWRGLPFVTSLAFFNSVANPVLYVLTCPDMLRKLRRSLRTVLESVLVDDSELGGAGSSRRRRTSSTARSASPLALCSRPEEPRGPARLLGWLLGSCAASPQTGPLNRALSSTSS
Put plainly: Epitope analysis using CHO-S cells which express mutated human CRTH2 with amino acid substitution. The class given is binding. Particulars: mutant R195A; antibody 10 μg/mL; relative to wild-type = 100%. The method, boiled down:
(§1)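 CHO-S cells transiently expressing alanine-substituted human CRTH2 extracellular mutants, C-terminally Azami-Green tagged, 24 h post-transfection. Antibodies at 10 μg/mL, 4 °C 1 h, then Alexa647 anti-IgG secondary 4 °C 1 h; flow cytometry on Azami-Green-positive cells. Reactivity = Alexa647 intensity divided by Azami-Green intensity.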

Experiment [2] concerns the target T2, mutated human CRTH2 with amino acid substitution (Homo sapiens, UniProt Q9Y5Y4, N185A/Y183A/Y184A).
T2 construct: inserting genes encoding various mutants with amino acid substitution obtained by deleting termination codons; expressed in transfected cells; host or cells: CHO-S cells (Lifetechnologies), transient (phmAG1-MNLinker vector)
T2 sequence (Q9Y5Y4 1-395 Y183A/Y184A/N185A): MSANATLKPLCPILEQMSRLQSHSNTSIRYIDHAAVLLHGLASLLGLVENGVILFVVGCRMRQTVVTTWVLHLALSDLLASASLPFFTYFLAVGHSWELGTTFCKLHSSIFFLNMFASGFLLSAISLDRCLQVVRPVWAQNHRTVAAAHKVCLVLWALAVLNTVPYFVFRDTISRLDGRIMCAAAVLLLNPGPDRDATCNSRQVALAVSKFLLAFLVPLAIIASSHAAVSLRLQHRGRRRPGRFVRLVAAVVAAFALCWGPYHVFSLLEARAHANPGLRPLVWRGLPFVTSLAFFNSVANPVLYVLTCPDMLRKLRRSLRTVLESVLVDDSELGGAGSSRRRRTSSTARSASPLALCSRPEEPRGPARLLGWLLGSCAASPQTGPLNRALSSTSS
The description is as above. Type of experiment: binding. Conditions: mutant Y183A, Y184A, and N185A; antibody 10 μg/mL; relative to wild-type = 100%. A digest of the protocol: as §1

B1: LV0HV1: humanized Lym2 antibody, VL LV0 (SEQ ID NO: 33), VH HV1 (SEQ ID NO: 51) (antibody, V domains shown)
VH: EVQLVESGGGVVQPGRSLRLSCAASGFTFSNYYMAWVRQAPGKGLEWVATISYDGSSTYYRDSVKGRFTISRDNAKNSLYLQMNSLRAEDTATYYCARHRGYYYSGAGYFDYWGQGTMVTVSS
VL: DIVMTQTPLSLPVTPGESASISCRSSQSLEYSDGYTYLEWYLQKPGQSPQVLIYGVSNRFSGVPDRFSGSGSGTDFTLKISRVEAEDVGVYYCFQATHDPLTFGQGTKLEIK
For B1, the “reactivity against cells expressing mutated human CRTH2” value in experiment [1] and in experiment [2] was “lost” in each case.
